pKd: −log10 of the molar value.
How the values were obtained:
[1] = molecular target: human PD-L1 (Acro, Catalog Number: H5229) (human) (UniProt Q9NZQ7); test: BLI, Octet RED96e, antibody on AHC sensor, antigen 100 nM, 1:1 fit
[2] = molecular target: monkey PD-L1 protein on CHOK1 cell (monkey (cyno)); test: FACS blocking assay: antibody titrated against Biotin-PD-1-mFc on CHOK1-cynoPD-L1 cells, SA488 detection
[3] = molecular target: human PD-L1 protein on HEK293 cell (human) (UniProt Q9NZQ7); test: FACS blocking assay: antibody titrated against Biotin-PD-1-mFc on HEK293-hPD-L1 cells, SA488 detection
human PD-L1 protein on HEK293 cell (human), sequence (Q9NZQ7 19-290): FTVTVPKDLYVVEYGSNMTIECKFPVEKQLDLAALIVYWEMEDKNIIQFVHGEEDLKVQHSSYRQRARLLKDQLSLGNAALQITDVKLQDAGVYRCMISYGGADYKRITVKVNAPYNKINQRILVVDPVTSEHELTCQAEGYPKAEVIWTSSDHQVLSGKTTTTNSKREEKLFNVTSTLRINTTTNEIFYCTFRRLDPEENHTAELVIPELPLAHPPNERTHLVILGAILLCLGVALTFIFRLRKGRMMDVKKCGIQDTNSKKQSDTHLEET

human PD-L1 (Acro, Catalog Number: H5229) (human), sequence (Q9NZQ7 19-238 limits assumed): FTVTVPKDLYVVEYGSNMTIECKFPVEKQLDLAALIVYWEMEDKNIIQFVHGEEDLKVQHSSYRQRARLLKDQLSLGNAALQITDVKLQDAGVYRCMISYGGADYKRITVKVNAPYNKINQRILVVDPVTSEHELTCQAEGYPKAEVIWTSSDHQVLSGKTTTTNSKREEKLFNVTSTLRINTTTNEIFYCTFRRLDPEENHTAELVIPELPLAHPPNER

Substance: Atezolimumab (antibody)
- pKd [1]: 9.32
- koff [1]: 0.000311 s⁻¹
- kon [1]: 644000 M⁻¹ s⁻¹
- IC50 (read off the curve) [2]: 0.9 µg/mL
- IC50 (read off the curve) [3]: 0.08 µg/mL

Reference: patent US20250277038A1
